Laboratory results from patent US20160297857A1.

Target: PA1b-binding site
Assay: ligand binding assay with 125I-labeled toxin

Binder | Ki [nM]
ADCSGICSPFEMPPCRSSDCRCIPIALIGGFCINPIS [AS37] | 15
AKCGEACDTQFNFCNAGDGCRCFITDAYLTLPGFCAQLST [AS40] | 10.3
DECWGPCSVLQTPPCPLSKCYCIPLFLVVGYCSHASS [DS37] | 694
ASCPNVGAVCSPFETKPCGNVKDCRCLPWGLFFGTCINPTG [AG41] | 1.3
EFCSSVGSFCSPFNTNPCGYLGNCRCVPYYLYGGTCENPFG [EG41] | 72.8
ASCNGVCSPFEMPPCGTSACRCIPVGLVIGYCRNPSG [PA1b polypeptide of Pisum sativum] | 17
